This passage reports Kd and IC50 results from US20070254831A1 (published 2007).

Where two headings read alike, the source gives them in different places. Bridge positions count the residues as written; N and C are the ends. Square brackets hold non-standard residues; d marks the D form. Ends that are not written are not given here. Pen = CC(C)(S)[C@H](N)C(=O)O

In experiment [1] the target is T1, soluble human FcRn (human, UniProt P55899 24-297; P61769 21-119, biotinylated (Sulfo-NHS-LC-Biotin) in the ELISA; amine-coupled to CM5 chip in SPR).
T1 construct: also called shFcRn; biotinylated shFcRn
T1 sequence (P55899 24-297 limits assumed, chain 1 of 2): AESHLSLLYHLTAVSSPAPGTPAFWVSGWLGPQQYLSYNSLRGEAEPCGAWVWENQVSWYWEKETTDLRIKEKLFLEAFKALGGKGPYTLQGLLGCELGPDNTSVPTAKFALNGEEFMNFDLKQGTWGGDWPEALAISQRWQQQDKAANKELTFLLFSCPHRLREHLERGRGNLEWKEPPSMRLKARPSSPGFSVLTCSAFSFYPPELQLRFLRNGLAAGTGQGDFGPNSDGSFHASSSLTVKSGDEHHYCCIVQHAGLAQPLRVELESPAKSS
T1 sequence (P61769 21-119 limits assumed, chain 2 of 2): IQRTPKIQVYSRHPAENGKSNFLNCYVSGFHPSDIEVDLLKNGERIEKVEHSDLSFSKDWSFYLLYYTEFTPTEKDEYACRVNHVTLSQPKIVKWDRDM
Put plainly: SPR, pH 6. Background: Surface plasmon resonance follows binding to a sensor surface in real time, without labels.
Method: (§1) The following steps were performed to cross-link soluble human or cynomolgus FcRn to the dextran surface of a CM5 sensor chip (Biacore AB, Uppsala, Sweden) by an amine coupling reaction involving 1-ethyl-(3-dimethylaminopropyl)-carbodiimide hydrochloride (EDC) (Biacore AB, Uppsala, Sweden) and N-hydroxysuccinimide (NHS) (Biacore AB, Uppsala, Sweden) as recommended by Biacore (BIAapplications Handbook, version AB, section 4.2, Biacore AB, Uppsala, Sweden). […] Residual sites on the FcRn flow cell were blocked with 1 M ethanolamine hydrochloride pH 8.5 (Biacore AB, Uppsala, Sweden). A control flow cell was blocked with ethanolamine for reference subtraction. For analysis of the monomeric peptides, FcRn was coated to a final density of 4000-5000 response units (RU). For analysis of the peptide dimers, FcRn was coated to a density of 2000-2500 RU. All SPR measurements were performed using a BIACORE 3000 Instrument (Biacore AB Uppsala, Sweden). For measurements done at either pH 6 or pH 7.4, experiments were performed in 50 mM phosphate, 100 mM sodium chloride, 0.01% surfactant P20 (Biacore AB, Uppsala, Sweden).
(§2) Ten, 2-fold dilutions of the peptide were injected over the FcRn-CM5 chip at a rate of 20 μl/min for 2 min. The peptide was dissociated from the chip for 2.5 minutes with buffer. Any remaining peptide was removed from the chip with a 30 second injection of HBS-P buffer (Biacore AB, Uppsala, Sweden) at a rate of 30 μl/min. Sensorgrams were generated and analyzed using BiaEval software version 3.1 (Biacore AB, Uppsala, Sweden). The equilibrium RU observed for each injection was plotted against concentration. The equilibrium KD values were derived by analysis of the plots using the steady state affinity model included in the BiaEval software.

In experiment [2] the target is T1, soluble human FcRn. Put plainly: ELISA, competitor human IgG.
The target of experiment [3] is T1, soluble human FcRn. Put plainly: SPR, pH 6. The source holds these as a separate data set.
Method: as §1, §2
Experiment [4] deals with T1, soluble human FcRn. The experiment can be described thus: ELISA, competitor human IgG. This is another data set of the same source. (In an ELISA, binding on a coated surface is turned into a signal by an enzyme label.)
Method: (§3) The wells were coated with 100 μl/well of 1 μg/ml biotinylated-shFcRn in Buffer A. The plate was sealed and incubated at 37° C. for 2 hours. Afterwards, the plate washed with 200 μl/well of Buffer B (Buffer B: 100 mM MES pH 6, 150 mM NaCl, 0.5% BSA IgG-free (Jackson ImmunoResearch, West Grove, Pa.), 0.05% Tween-20). […] To allow for mixing, the plate was rocked for 2 minutes, sealed and incubated at 37° C. for 2 hours. […] The plate was covered, incubated for 30 minutes at room temperature and washed 4 times with 200 μl/well of ice-cold buffer B. SureBlue TMB substrate solution (100 μl/well, KPL, Gaithersburg, Md.) was added and the plate was allowed to incubate at room temperature until color developed, which took 5 to 10 minutes. Once color developed, 100 μl/well of TMB stop solution (KPL, Gaithersburg, Md.) was added and the absorbance was measured at 450 nm. The data was plotted as absorbance vs. peptide concentration to derive the inhibitory concentration 50% (IC₅₀) values.
In experiment [5] the target is T1, soluble human FcRn. The experiment can be described thus: SPR, pH 6. This is another data set of the same source.
Method: as §1, §2
Experiment [6] concerns the target T1, soluble human FcRn. Put plainly: SPR, pH 6. This is another data set of the same source.
Method: as §1, §2
In experiment [7] the target is T1, soluble human FcRn. The experiment can be described thus: ELISA, competitor human IgG. This is another data set of the same source.
Method: as §3
Experiment [8] concerns the target T1, soluble human FcRn. The experiment can be described thus: SPR, pH 7.4.
Method: as §1, §2
Experiment [9] concerns the target T1, soluble human FcRn. The experiment can be described thus: ELISA, competitor human IgG. The source holds these as a separate data set.
Method: as §3
In experiment [10] the target is T1, soluble human FcRn. The experiment can be described thus: SPR, pH 6. The source holds these as a separate data set.
Method: as §1, §2
Experiment [11] deals with T1, soluble human FcRn. Put plainly: ELISA, competitor human IgG. The source holds these as a separate data set.
Method: as §3
For experiment [12], the target named is T1, soluble human FcRn. The experiment can be described thus: SPR, pH 6. The source holds these as a separate data set.
Method: as §1, §2
In experiment [13] the target is T1, soluble human FcRn. The experiment can be described thus: SPR, pH 7.4. The source holds these as a separate data set.
Method: as §1, §2

Consider QRFSTGHFGGLYPSNGP-NH2 [Peptide No. 71], for which binding in experiment [1] was characterised by a dissociation constant (Kd) of 230 µM. In experiment [2], this molecule gave an IC50 above 125 µM.
Consider FCTGHFGGLYPCNGP-NH2 (disulfide 2-12 (inferred)) [SEQ ID NO:22], for which binding in [3] was put at a Kd of 11 µM. In addition, in experiment [4], the IC50 was found to be 67 µM.
In turn, TGHFGGLYP-NH2 [SEQ ID NO:20] had an IC50 in [4] above 250 µM.
As to RFXTGHFGGLYPC (Pen at 3; Sar at 9; NMeLeu at 10; disulfide; C-terminal amide) [Peptide No. 235], the Kd in experiment [5] and in experiment [6] was 0.031 µM each time.
Consider RFXTGHFVGLYPC (Pen at 3; D-Val at 8; Sar at 9; NMeLeu at 10; disulfide; C-terminal amide) [Peptide No. 218], for which, in experiment [7], the IC50 is above 50 µM.
In experiment [7], RFXTGHFNGLYPC (Pen at 3; D-Asn at 8; Sar at 9; NMeLeu at 10; disulfide; C-terminal amide) [Peptide No. 243] registered an IC50 of 29 µM. The Kd in experiment [6] came to 2.1 µM.
In [7], RFXTGHFLGLYPC (Pen at 3; D-Leu at 8; Sar at 9; NMeLeu at 10; disulfide; C-terminal amide) [Peptide No. 219] displayed an IC50 of 4 µM. Moreover, binding in [6] was characterised by a dissociation constant (Kd) of 0.47 µM.
With RFXTGHFEGLYPC (Pen at 3; D-Glu at 8; Sar at 9; NMeLeu at 10; disulfide; C-terminal amide) [Peptide No. 244], in [7], the IC50 was 6.4 µM. The molecule also showed a Kd in experiment [6] of 0.58 µM.
In [7], RFXTGHFTGLYPC (Pen at 3; D-Thr at 8; Sar at 9; NMeLeu at 10; disulfide; C-terminal amide) [Peptide No. 240] registered an IC50 of 71 µM. For the same molecule, binding in experiment [6] was characterised by a dissociation constant (Kd) of 4.8 µM.
With RFXTGHFFGLYPC (Pen at 3; D-Phe at 8; Sar at 9; NMeLeu at 10; disulfide; C-terminal amide) [Peptide No. 217], the Kd in experiment [6] turned out to be 1.4 µM.
Consider RFXTGHFSGLYPC (Pen at 3; D-Ser at 8; Sar at 9; NMeLeu at 10; disulfide; C-terminal amide) [Peptide No. 241], for which the IC50 in experiment [7] was 23 µM. In addition, the Kd in experiment [6] amounted to 1.1 µM.
In [3], CTGHFGGLYPCNGP-NH2 (disulfide 1-11 (inferred)) [SEQ ID NO:17] came in with a Kd of 34 µM. The molecule further showed an IC50 in [4] of 239 µM.
As for QRFXTGHFGXLYPCNGP (Pen at 4; Aib (aminoisobutyric acid) at 10; disulfide; C-terminal amide) [Peptide No. 46], the Kd was determined as 5.3 µM in experiment [8] and 0.48 µM in experiment [10]. The molecule further had an IC50 in experiment [9] of 2.4 µM.

B1: Peptide No. 246 (peptide)
peptide: RFVTGHFG[dP]WYPA-NH2
modifications: N-terminus assumed
SMILES: CC(C)[C@H](NC(=O)[C@H](Cc1ccccc1)NC(=O)[C@@H](N)CCCNC(=N)N)C(=O)N[C@H](C(=O)NCC(=O)N[C@@H](Cc1c[nH]cn1)C(=O)N[C@@H](Cc1ccccc1)C(=O)NCC(=O)N1CCC[C@@H]1C(=O)N[C@@H](Cc1c[nH]c2ccccc12)C(=O)N[C@@H](Cc1ccc(O)cc1)C(=O)N1CCC[C@H]1C(=O)N[C@@H](C)C(N)=O)[C@@H](C)O
In [1], B1 yielded a Kd of 3.6 µM. This molecule also showed an IC50 in experiment [2] of 60 µM.

B2: Peptide No. 211 (peptide)
peptide: FVTGHFG[dP]WYPA-NH2
modifications: N-terminus assumed
SMILES: CC(C)[C@H](NC(=O)[C@@H](N)Cc1ccccc1)C(=O)N[C@H](C(=O)NCC(=O)N[C@@H](Cc1c[nH]cn1)C(=O)N[C@@H](Cc1ccccc1)C(=O)NCC(=O)N1CCC[C@@H]1C(=O)N[C@@H](Cc1c[nH]c2ccccc12)C(=O)N[C@@H](Cc1ccc(O)cc1)C(=O)N1CCC[C@H]1C(=O)N[C@@H](C)C(N)=O)[C@@H](C)O
In experiment [1], B2 had an equilibrium dissociation constant (Kd) of 8 µM. The IC50 in [2] was determined as 100 µM.
The molecule QAFCTGHFGGLYPCNGP-NH2 (disulfide 4-14 (inferred)) [SEQ ID NO:25] displayed an IC50 in [11] of 23 µM. In [12], this molecule yielded a Kd of 7.7 µM.
Turning to QRFCTGHFGGLYPCAGP-NH2 (disulfide 4-14 (inferred)) [SEQ ID NO:36], the IC50 in experiment [11] worked out at 30 µM. The molecule also gave a Kd in [12] of 8 µM.
Regarding QRACTGHFGGLYPCNGP-NH2 (disulfide 4-14 (inferred)) [SEQ ID NO:26], in experiment [11], the IC50 was 95 µM. In experiment [12], this molecule showed a Kd of 28 µM.
QRFCAGHFGGLYPCNGP-NH2 (disulfide 4-14 (inferred)) [SEQ ID NO:27] yielded an IC50 in experiment [11] of 30 µM. Moreover, the Kd in experiment [12] came out at 4.9 µM.

B3: Peptide No. 169 (peptide)
peptide: QRFVTGHFG[dP]LYPINGP-NH2
modifications: N-terminus assumed
SMILES: CC[C@H](C)[C@H](NC(=O)[C@@H]1CCCN1C(=O)[C@H](Cc1ccc(O)cc1)NC(=O)[C@H](CC(C)C)NC(=O)[C@H]1CCCN1C(=O)CNC(=O)[C@H](Cc1ccccc1)NC(=O)[C@H](Cc1c[nH]cn1)NC(=O)CNC(=O)[C@@H](NC(=O)[C@@H](NC(=O)[C@H](Cc1ccccc1)NC(=O)[C@H](CCCNC(=N)N)NC(=O)[C@@H](N)CCC(N)=O)C(C)C)[C@@H](C)O)C(=O)N[C@@H](CC(N)=O)C(=O)NCC(=O)N1CCC[C@H]1C(N)=O
Consider B3, for which the Kd in experiment [1] was found to be 15 µM. In experiment [2], this molecule showed an IC50 of 72 µM.
Consider QRFXTGHFGPLYPCNGP (Pen at 4; D-Pro at 10; disulfide; C-terminal amide) [Peptide No. 40], for which, in [8], the Kd was 1.1 µM. This molecule also came in with an IC50 in experiment [9] of 1.4 µM.
On the same counts, the results for QRFXTGHFGILYPCNGP (Pen at 4; D-Ile at 10; disulfide; C-terminal amide) [Peptide No. 43] are 41 µM and 18 µM.
For QRFXTGHFGFLYPCNGP (Pen at 4; D-Phe at 10; disulfide; C-terminal amide) [Peptide No. 44], the Kd is 100 µM in experiment [8] and 1.7 µM in experiment [10].

B4: Peptide No. 41 (peptide)
peptide: QRF[Pen]TGHFG[dR]LYPCNGP-NH2
modifications: disulfide 4-14; N-terminus assumed
SMILES: CC(C)C[C@@H]1NC(=O)[C@@H](CCCNC(=N)N)NC(=O)CNC(=O)[C@H](Cc2ccccc2)NC(=O)[C@H](Cc2c[nH]cn2)NC(=O)CNC(=O)[C@H]([C@@H](C)O)NC(=O)[C@@H](NC(=O)[C@H](Cc2ccccc2)NC(=O)[C@H](CCCNC(=N)N)NC(=O)[C@@H](N)CCC(N)=O)C(C)(C)SSC[C@@H](C(=O)N[C@@H](CC(N)=O)C(=O)NCC(=O)N2CCC[C@H]2C(N)=O)NC(=O)[C@@H]2CCCN2C(=O)[C@H](Cc2ccc(O)cc2)NC1=O
For B4, the Kd in experiment [8] was found to be 8.8 µM; in experiment [10] it was 0.83 µM. The molecule further yielded an IC50 in experiment [9] of 8.1 µM.
On to QRFXTGHFGHLYPCNGP (Pen at 4; D-His at 10; disulfide; C-terminal amide) [Peptide No. 42], for which the Kd in experiment [8] stood at 20 µM; in [10], 2 µM.
As to QRFXTGHFDGLYPCNGP (Pen at 4; D-Asp at 9; disulfide; C-terminal amide) [Peptide No. 47], the Kd in experiment [8] was 4.9 µM; in experiment [10], 0.58 µM.
As to QRFCTGHFGGLYPC-NH2 (disulfide 4-14 (inferred)) [SEQ ID NO:18], in experiment [13], the affinity, expressed as Kd, was 26 µM.

Usually Kd stands for the equilibrium constant for the complex coming apart. By IC50 is commonly meant the midpoint of a concentration-inhibition curve. Low values mean inhibition by little substance, high ones a need for much substance.
